Data published in the supplement of paper PMC10567573.
± gives the standard deviation.

Experiment: protein stability index of a GFP-peptide fusion (GPS, HEK-293T) (PSI 1-6); higher = more stable
[1] = treatment: DMSO, c terminus: a fixed tail appended
[2] = treatment: MLN4924 1 uM, 8 h, c terminus: a fixed tail appended
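Also: 24-mer peptide tiles fused after GFP, lentivirally expressed, FACS-sorted into six equal bins by GFP/DsRed ratio, decoded by Illumina sequencing, PSI is the read-weighted mean bin number.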

Sequence	protein stability index [1]	protein stability index [2]	protein stability index (treatment: DMSO, c terminus: native)	protein stability index (treatment: MLN4924 1 uM, 8 h, c terminus: native)
PPRGPLGQGAMFRLPTDSHFPYDL [NEUROD6]	3.46 ± 0.18	3.59 ± 0.38		
EKSQAYPRRRRPGCYAYRQNPEAI [MYORG]	3.34 ± 0.27	3.32 ± 0.14		
KYKCLLQQLYYTEADYEDDSKIAF [IQUB]	2.12 ± 0.6	2.02 ± 0.32		
DVGCISVTVPSMLSRLLSRKRAVP [OR3A1]	2.71 ± 0.26	2.85 ± 0.19		
SVNICGMNEHPVCSRTWTNRLCHQ [SPAG8]	2.29 ± 0.26	2.36 ± 0.14		
AEMLRFGDRMFYRDWWNSTSFSNY [SOAT2]	2.28 ± 0.52	2.02 ± 0.041		
TCKASHITSSVFPSASLGKASSRK [FBXO34]	3.62 ± 0.28	3.55 ± 0.2		
CLRILMGELSNHHDHHDEFCLMP [BEX3]			2.58 ± 0.69	2.27 ± 0.15
LKQNFSKSWHDMQTTTAYKKTHET [TPD52L1]	3.6 ± 0.25	3.96 ± 0.24		
RFNKLGLDHLSLGEEPVPHQQVEE [NEK8]	4.91 ± 0.22	4.89 ± 0.26		
NFIREQDLYALKSVKIPVRNHGIL [LYSMD4]	2.27 ± 0.076	2.35 ± 0.37		
PKKISDLDHCANRVLMYGSELDAD [TPH1]	4.58 ± 0.083	4.47 ± 0.088		
EEQATKQFLEEINKWTVQYNVSPL [PTPN9]	2.96 ± 0.54	3.15 ± 0.43		
LKYQAPDIDVQLSSELTDSLRTLK [NOP53]	2.79 ± 0.14	3.14 ± 0.45		
YEFHLEFLDLVKPEPVYKLTQRQV [HACD3]	2.54 ± 0.63	2.12 ± 0.076		
TLPLQDRELGPEELDELQAAFEEF [CABP4]	5.27 ± 0.23	5.27 ± 0.24		
LQLGAAKKPPVTFAEKGELRKSIF [TRIM29]	3.14 ± 0.16	3.25 ± 0.21		
DKKKELQELNELFKPVVAAQKISK [ZC3H15]	4.39 ± 0.32	4.43 ± 0.17		
AFNFLLVWYYCTLTIRESILINNG [TMEM120A]	2.87 ± 0.055	3.15 ± 0.51		
SKARRKKIMIIICCVILGIVIAST [STX1A]	2.69 ± 0.23	2.67 ± 0.33		
VLVAETTMARIRRVYVSGLMKGGA [APMAP]	2.17 ± 0.27	2.1 ± 0.28		
SLDESVIYGPGNLSTNNNTLRDHF [SLC2A12]	3.63 ± 0.31	3.6 ± 0.27		

Sequence	protein stability index [1]	protein stability index [2]	protein stability index (treatment: DMSO, c terminus: native)	protein stability index (treatment: MLN4924 1 uM, 8 h, c terminus: native)
KRRGPQRSVDVVVSSVFLLTLSIA [PHTF1]	2.55 ± 0.32	2.33 ± 0.23		
SPRTRGSWSQPQPLKAPCLNGDTT [RASAL3]	3.92 ± 0.11	4.03 ± 0.23		
WADAAGEAVPEGPDGGGPWLEDEP [ZSWIM9]	5.62 ± 0.34	5.26 ± 0.47		
DWGRTALHYAAASDMDRNKTILGN [ANKRD44]	3.35 ± 0.32	3.35 ± 0.17		
LSEGCRAELAETIVYARVLALHPE [CCDC3]	2.92 ± 1.4	1.83 ± 0.38		
VASYILASHNGISYKDLDVIFGVE [TENT5D]	2.93 ± 0.85	2.89 ± 1.4		
ESQSTSLRGSYNSLHDGSDGLDGI [LURAP1L]	4.91 ± 0.11	4.68 ± 0.17		
QAQKCYRDLALVSRDGMNIVLNKI [INTS3]	2.29 ± 0.23	2.61 ± 0.44		
DKERFTTLVQDLANAFQQEAQTSG [CHIT1]	4.19 ± 0.066	4.26 ± 0.12		
ACTRSLLGDPPPLLTLPRPPLSGA [HDAC6]	3.44 ± 0.37	3.58 ± 0.26		
DPDINMHPFFFALGKILSVELGKQ [FADS1]	2.46 ± 0.61	2.38 ± 0.59		
KESAQCVGDEFLNCKLATRAKDFL [SNX8]	3.32 ± 0.2	3.21 ± 0.36		
ILELVVLEQFVAILPKELQTWVRD [ZNF24]	2.35 ± 0.54	2.45 ± 0.46		
NIGDSSSGLIQTVFISSYMVLAPV [SPNS1]	3.12 ± 0.32	2.67 ± 0.38		
APHQQPPAPPSDALLDLHFPSDHL [TFE3]	4.65 ± 0.087	4.77 ± 0.057		
TEYQIVTDPGDVPAFLKWLSLASL [SLC2A12]	2.26 ± 0.35	2.16 ± 0.42		
SLREYNDFLEEVEEIVFNLTNNVD [MNAT1]	2.6 ± 0.47	3.13 ± 0.44		
DLFKSFPGPMDWVPRYTGVAPQDQ [ADAMTS4]	3.19 ± 0.29	3.21 ± 0.2		
STSRHVMAPVMAHVDPEEPWSPCS [ADAMTS4]	4.32 ± 0.14	4.41 ± 0.17		
SQIHNNGQSDFRPKNGRHAWIWHD [LOXL2]	3.31 ± 0.35	3.22 ± 0.22		
FRVVDCDQFTQVFLESQGIELNPP [EFHC1]	2.01 ± 0.14	2.27 ± 0.17		
RLRKCYEVGMVKCGSRRERCGYRL [ESR2]	2.54 ± 0.4	2.43 ± 0.29		
